From patent US20180186873A1

Legend:
[1] = target: cynomolgus monkey IL-5 (cynomolgus monkey); experiment: cell-based or functional assay
[2] = target: recombinant human IL-5 (human) (UniProt P05113); experiment: cell-based or functional assay

## Mepolizumab (antibody)
[1]
  IC50, inhibition of IL-5 driven proliferation of TF-1.6G4 cells (Mean, pM): 584 pM
[2]
  IC50, inhibition of IL-5 driven proliferation of TF-1.6G4 cells (Mean, pM): 534 pM
